Experimental data: paper PMC8956657 (Nature Communications, 2022)
Where no end group is shown, it is not given here.

How the values were obtained:
Test in all cases: fluorescence polarisation
Conditions in all cases: both partners purified
[1] = target: T1, IMPα5 lacking the IBB domain (residues 73-538) (UniProt P52294 73-538)
T1 construct: also called ΔIBB-IMPα5; importin alpha 5

[2] = target: T2, IMPα7 lacking the IBB domain (residues 73-536) (UniProt O60684 73-536)
T2 construct: also called ΔIBB-IMPα7; importin alpha 7

[3] = target: IMPα1 lacking the IBB domain (residues 70-529) (UniProt P52292 70-529)
[4] = target: T3, IMPα3 lacking the IBB domain (residues 64-521) (UniProt O00629 64-521)
T3 construct: also called ΔIBB-IMPα3; KPNA4
T3 sequence (looked up): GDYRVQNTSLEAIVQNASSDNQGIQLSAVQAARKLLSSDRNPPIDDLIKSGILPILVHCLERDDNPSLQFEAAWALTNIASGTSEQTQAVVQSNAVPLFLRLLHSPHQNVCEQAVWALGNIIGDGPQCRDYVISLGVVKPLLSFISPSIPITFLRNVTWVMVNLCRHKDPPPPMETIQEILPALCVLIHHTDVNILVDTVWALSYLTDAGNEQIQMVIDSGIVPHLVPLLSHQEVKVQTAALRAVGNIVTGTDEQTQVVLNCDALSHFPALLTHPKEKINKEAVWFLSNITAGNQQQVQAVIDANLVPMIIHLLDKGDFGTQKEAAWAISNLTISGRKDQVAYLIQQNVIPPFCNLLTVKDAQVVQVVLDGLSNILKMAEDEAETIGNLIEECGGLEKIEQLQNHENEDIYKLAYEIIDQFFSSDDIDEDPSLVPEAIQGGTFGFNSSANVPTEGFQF

T1 sequence (P52294 73-538): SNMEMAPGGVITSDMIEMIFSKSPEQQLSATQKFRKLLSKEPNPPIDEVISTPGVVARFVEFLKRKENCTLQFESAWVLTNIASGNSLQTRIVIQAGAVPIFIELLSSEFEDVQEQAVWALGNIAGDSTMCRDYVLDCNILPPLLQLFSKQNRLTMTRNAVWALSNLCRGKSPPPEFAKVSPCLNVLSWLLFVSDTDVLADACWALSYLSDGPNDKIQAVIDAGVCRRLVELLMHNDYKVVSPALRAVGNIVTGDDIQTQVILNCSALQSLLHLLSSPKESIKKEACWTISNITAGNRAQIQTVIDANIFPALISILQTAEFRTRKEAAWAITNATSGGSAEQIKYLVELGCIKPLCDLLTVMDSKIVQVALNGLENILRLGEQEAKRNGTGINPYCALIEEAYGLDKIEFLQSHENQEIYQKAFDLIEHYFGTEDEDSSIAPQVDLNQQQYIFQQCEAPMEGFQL
T2 sequence (O60684 73-536): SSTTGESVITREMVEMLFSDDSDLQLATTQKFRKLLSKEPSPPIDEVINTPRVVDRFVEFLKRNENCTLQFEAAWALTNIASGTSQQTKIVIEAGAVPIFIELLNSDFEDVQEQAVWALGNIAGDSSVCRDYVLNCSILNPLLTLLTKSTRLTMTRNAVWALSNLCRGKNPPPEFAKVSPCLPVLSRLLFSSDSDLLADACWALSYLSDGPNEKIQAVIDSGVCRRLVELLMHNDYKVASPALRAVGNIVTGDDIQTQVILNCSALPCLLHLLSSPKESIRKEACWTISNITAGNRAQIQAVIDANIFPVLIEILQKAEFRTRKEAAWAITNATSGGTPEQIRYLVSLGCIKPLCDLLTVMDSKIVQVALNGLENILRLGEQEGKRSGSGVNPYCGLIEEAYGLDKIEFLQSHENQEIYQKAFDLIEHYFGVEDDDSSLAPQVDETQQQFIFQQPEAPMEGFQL

B1: FITC-tagged MERS-CoV ORF4b NLS peptide (residues 19-39), wild type (peptide)
peptide: RKARKRSHSPTKKLRYVKRRF
modifications: also: FITC-tagged
B1 was tested, and the binding result [1] was “binds”, the Kd [2] was 1.9 nM and the Kd [3] was 2.5 nM. The Kd [4] was 1.4 nM.
